B1: NuMA (1808–2001) (domain or fragment)
chain: KLDVEEPDSANSSFYSTRSAPASQASLRATSSTQSLARLGSPDYGNSALLSLPGYRPTTRSSARRSQAGVSSGAPPGRNSFYMGTCQDEPEQLDDWNRIAELQQRNRVCPPHLKTCYPLESRPSLSLGTITDEEMKTGDPQETLRRASMQPIQIAEGTGITTRQQRKRVSLEPHQGPGTPESKKATSCFPRPMT
B2: NuMA (1847–1914) (domain or fragment)
chain: GSPDYGNSALLSLPGYRPTTRSSARRSQAGVSSGAPPGRNSFYMGTCQDEPEQLDDWNRIAELQQRNR
B3: Insc (18–66) (domain or fragment)
chain: WGLWGAQESRRLCCVGPDRCGQALLQIGINMMALPGGRHLDSVPLQEQR
B4: NuMA (1886–1912) (domain or fragment)
chain: NSFYMGTCQDEPEQLDDWNRIAELQQR

Experiments:
[1] = target: FL-LGN + Gαi3⋅GDP (mouse | human) (UniProt P08754); test: ITC; 25°C; 50 mM Tris (pH 8.0), 100 mM NaCl, 1 mM EDTA; one protein (0.2 mM) injected into another (0.02 mM); one-site binding model
[2] = target: FL-LGN (mouse); test: as above
[3] = target: FL-AGS3 (mouse); test: as above
[4] = target: FL-AGS3 + Gαi3⋅GDP (mouse | human) (UniProt P08754); test: as above
[5] = target: FL-LGN-4E (mouse); test: SEC-MALS; called SLS; HELEOS II (Wyatt); 100 μl of purified sample at about 10 μM
[6] = target: FL-AGS3-L-4E (mouse); test: as above
[7] = target: AGS3-TPR (1–405) (mouse); test: as above
[8] = target: AGS3-L (−23–405) (mouse); test: as above
[9] = target: LGN-TPR (1–409) (mouse); test: as above
[10] = target: AGS3-TPR (1–405) (mouse); test: ITC; 25°C; 50 mM Tris (pH 8.0), NaCl raised to 300 mM for AGS3-TPR or AGS3-L, 1 mM EDTA; one protein (0.2 mM) injected into another (0.02 mM); one-site binding model

FL-LGN + Gαi3⋅GDP (mouse | human), sequence (P08754 whole entry, looked up): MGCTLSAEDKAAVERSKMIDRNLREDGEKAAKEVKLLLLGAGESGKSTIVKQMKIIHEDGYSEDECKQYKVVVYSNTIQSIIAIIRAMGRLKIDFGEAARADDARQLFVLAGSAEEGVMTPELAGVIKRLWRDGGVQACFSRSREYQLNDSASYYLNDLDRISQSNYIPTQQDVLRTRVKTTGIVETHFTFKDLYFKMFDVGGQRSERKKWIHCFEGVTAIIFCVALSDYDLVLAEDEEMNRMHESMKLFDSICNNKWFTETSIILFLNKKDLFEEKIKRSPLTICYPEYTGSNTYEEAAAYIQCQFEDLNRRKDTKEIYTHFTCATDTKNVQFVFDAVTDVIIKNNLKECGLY
FL-AGS3 + Gαi3⋅GDP (mouse | human), sequence (P08754 whole entry, looked up): as above

Binder	Kd [1] [nM]	Kd [2] [nM]	Kd [3] [nM]	Kd [4] [nM]	stoichiometry N (NuMA per FL-LGN-4E (2:2)) [5]	stoichiometry N (NuMA per FL-AGS3-L-4E (1:1)) [6]	stoichiometry N (NuMA per AGS3-TPR (1:1)) [7]	stoichiometry N (NuMA per AGS3-L (3:3)) [8]	stoichiometry N (NuMA per LGN-TPR (3:3)) [9]	Kd [10] [nM]
B1	2240	3130	3610	2280	1	1				
B2							1	1	1	
B3	2620	3920	2270	2290						290
B4										220

— PMC12151148
